According to patent US20080274978A1 (POSTECH FOUNDATION, published 2008):
Where no end group is shown, it is not given here. [ ]: non-standard residue; d: D form.

T1: Formyl peptide receptor like 1 (FPRL1) (human, UniProt P25090 1-351)
T1 sequence (looked up): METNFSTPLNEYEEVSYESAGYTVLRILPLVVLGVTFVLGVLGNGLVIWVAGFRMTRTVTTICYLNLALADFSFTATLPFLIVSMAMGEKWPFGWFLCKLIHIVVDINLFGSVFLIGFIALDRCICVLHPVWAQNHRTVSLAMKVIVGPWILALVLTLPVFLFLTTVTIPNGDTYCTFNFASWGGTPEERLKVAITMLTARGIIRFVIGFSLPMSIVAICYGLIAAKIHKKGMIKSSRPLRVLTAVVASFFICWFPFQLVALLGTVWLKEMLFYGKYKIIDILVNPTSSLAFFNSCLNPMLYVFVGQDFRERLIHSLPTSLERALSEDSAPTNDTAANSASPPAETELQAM


What was measured:
[1] = biological target: T1, Formyl peptide receptor like 1 (FPRL1); assay: cell-based or functional assay
[2] = biological target: T1, Formyl peptide receptor like 1 (FPRL1); assay: cell-based or functional assay; remark: listed apart in the source
[3] = biological target: T1, Formyl peptide receptor like 1 (FPRL1); assay: displacement of 125I-WKYMVm (50 pM) from FPRL1-expressing RBL-2H3 cells
Description: Ligand binding analysis was performed as previously described (24). Briefly, FPR-expressing RBL-2H3 cells were seeded at 1×10⁵ cells per well into a 24 well plate and cultured overnight. […] The samples were then washed 5 times with ice-cold binding buffer, and 200 μl of lysis buffer (20 mM Tris, pH 7.5, 1% Triton X-100) was added to each well. After 20 min at room temperature, the lysates were collected and counted using a γ-ray counter (24).

Binder	antagonistic activity on intracellular calcium concentration increase, relative to WRWWWW (SEQ ID NO:4) [1] [times]	Ca^2+ (FPRL1) IC50 [2] [nM]	IC50 [3] [nM]
[dW]WRWWM (not fully specified; printed as wWRWWM) [wWRWWM]	~100	8.2	
WWRWWW		58	
WWRWWM		83	
[dW]WRWWW [wWRWWW]		110	
WWWWWM		130	
WWWWWR		220	
WWWRWW		470	
LWWWWW		500	
RWWW		600	
RWWM		650	
WWWW		860	
RRWWWW-NH2 [Arg-Arg-Trp-Trp-Trp-Trp-CONH2 (RRWWWW, RRW^4)]			2400
RHWWWW-NH2 [Arg-His-Trp-Trp-Trp-Trp-CONH2 (RHWWWW, RHW^4)]			3200
DRWWWW-NH2 [Asp-Arg-Trp-Trp-Trp-Trp-CONH2 (DRWWWW, DRW^4)]			3400
WRWWWW-NH2 [Trp-Arg-Trp-Trp-Trp-Trp-CONH2 (WRWWWW, WRW^4)]		1000	230
LRWWWW		1100	
WWWWRW		2700	
WWWWMR		5700	
WWWM		5900	
WWWWWW		> 10000	
WWWWW[dW] [WWWWWw]		> 10000	
WRRWWW		> 10000	
WRWW		> 10000	
WWW[dW] [WWWw]		> 10000	
RWW[dW] [RWWw]		> 10000	
WRW		> 10000	
